These results are taken from article PMC13397619.

B1: NLV2 TCR alpha chain (CDR3α only) (parent)
chain: AGPMKTSYDKVI
partner: NLVGMVATV
B2: NLV2 TCR alpha chain (CDR3α only) (parent)
chain: AGPMKTSYDKVI
partner: MLVPMVATV

The first assay covers variants of B1. The experiment in a line: T-Switch: Jurkat TCRβ−/− cells expressing a CDR3 saturation-mutagenesis library, stained with two peptide-HLA-A*02:01 tetramers (original and novel peptide) plus anti-CD3, FACS-sorted into four gates, gDNA sequenced. Conditions: with HLA-A*02:01 with peptide … (NLV 2-2, the original bait), tetramers 1 µg/mL, 30 min on ice, DP and SW gates expanded about 10 days between rounds ('two to three rounds of selection' in the Methods), gate SP: higher = more of the variant in the gate that binds the original peptide and not the novel one = retained original binding. Fold enrichment of the CDR3 variant in one FACS gate of a two-tetra, unresolved parent, parent is a CDR3 fragment, scale: fold enrichment, numbering: sequential-on-construct, sequence ….
[…] (CDR3 as printed); V11T derived by comparing it with the table's wild-type CDR3 AGPMKTSYDKVI: the enrichment was determined as 0. Turning to […] (CDR3 as printed); T6L derived by comparing it with the table's wild-type CDR3 AGPMKTSYDKVI, the enrichment worked out at 0. Take […] (CDR3 as printed); Y8P derived by comparing it with the table's wild-type CDR3 AGPMKTSYDKVI: the enrichment stood at 0.

Consider […] (CDR3 as printed); T6S derived by comparing it with the table's wild-type CDR3 AGPMKTSYDKVI, for which the enrichment came to 0. Take […] (CDR3 as printed); T6R derived by comparing it with the table's wild-type CDR3 AGPMKTSYDKVI: the enrichment was 0. For the variant […] (CDR3 as printed); Y8V derived by comparing it with the table's wild-type CDR3 AGPMKTSYDKVI, the enrichment worked out at 0. Still for that read-out and setting: the value for […] (CDR3 as printed); V11H derived by comparing it with the table's wild-type CDR3 AGPMKTSYDKVI was 0; that for […] (CDR3 as printed); Y8I derived by comparing it with the table's wild-type CDR3 AGPMKTSYDKVI was 0.

As for […] (CDR3 as printed); T6V derived by comparing it with the table's wild-type CDR3 AGPMKTSYDKVI, the enrichment turned out to be 22.1.

As for […] (CDR3 as printed); V11Y derived by comparing it with the table's wild-type CDR3 AGPMKTSYDKVI, the enrichment was 0.

Take […] (CDR3 as printed); V11F derived by comparing it with the table's wild-type CDR3 AGPMKTSYDKVI: the enrichment turned out to be 0. Still for that read-out and setting: next, […] (CDR3 as printed); Y8L derived by comparing it with the table's wild-type CDR3 AGPMKTSYDKVI: 0. Regarding […] (CDR3 as printed); Y8T derived by comparing it with the table's wild-type CDR3 AGPMKTSYDKVI, the enrichment worked out at 0.942. On the same count and under the same terms, the value for […] (CDR3 as printed); T6P derived by comparing it with the table's wild-type CDR3 AGPMKTSYDKVI was 9.39. In the case of […] (CDR3 as printed); T6Q derived by comparing it with the table's wild-type CDR3 AGPMKTSYDKVI, the enrichment was 0. Same read-out and setting: the value for […] (CDR3 as printed); T6M derived by comparing it with the table's wild-type CDR3 AGPMKTSYDKVI was 0; that for […] (CDR3 as printed); Y8K derived by comparing it with the table's wild-type CDR3 AGPMKTSYDKVI was 0; that for […] (CDR3 as printed); V11D derived by comparing it with the table's wild-type CDR3 AGPMKTSYDKVI was 0.11. The same measure, in the same setting: the value for […] (CDR3 as printed); Y8R derived by comparing it with the table's wild-type CDR3 AGPMKTSYDKVI was 0; that for […] (CDR3 as printed); Y8G derived by comparing it with the table's wild-type CDR3 AGPMKTSYDKVI was 0.

Turning to […] (CDR3 as printed); T6Y derived by comparing it with the table's wild-type CDR3 AGPMKTSYDKVI, the enrichment was 0. […] (CDR3 as printed); V11K derived by comparing it with the table's wild-type CDR3 AGPMKTSYDKVI: the enrichment came to 0.

In the case of […] (CDR3 as printed); Y8D derived by comparing it with the table's wild-type CDR3 AGPMKTSYDKVI, the enrichment came to 0. For the variant […] (CDR3 as printed); Y8S derived by comparing it with the table's wild-type CDR3 AGPMKTSYDKVI, the enrichment came out at 0.

As to […] (CDR3 as printed); V11N derived by comparing it with the table's wild-type CDR3 AGPMKTSYDKVI, the enrichment amounted to 0. The same measure, in the same setting: the value for […] (CDR3 as printed); Y8N derived by comparing it with the table's wild-type CDR3 AGPMKTSYDKVI was 0. Still for that read-out and setting: next, […] (CDR3 as printed); Y8A derived by comparing it with the table's wild-type CDR3 AGPMKTSYDKVI: 0; […] (CDR3 as printed); V11A derived by comparing it with the table's wild-type CDR3 AGPMKTSYDKVI: 1.13; […] (CDR3 as printed); Y8H derived by comparing it with the table's wild-type CDR3 AGPMKTSYDKVI: 0.

[…] (CDR3 as printed); T6N derived by comparing it with the table's wild-type CDR3 AGPMKTSYDKVI: the enrichment was found to be 0. As for […] (CDR3 as printed); V11W derived by comparing it with the table's wild-type CDR3 AGPMKTSYDKVI, the enrichment amounted to 0. With […] (CDR3 as printed); V11L derived by comparing it with the table's wild-type CDR3 AGPMKTSYDKVI, the enrichment worked out at 0. Still for that read-out and setting: next, […] (CDR3 as printed); T6K derived by comparing it with the table's wild-type CDR3 AGPMKTSYDKVI: 0; […] (CDR3 as printed); V11R derived by comparing it with the table's wild-type CDR3 AGPMKTSYDKVI: 0. Turning to […] (CDR3 as printed); Y8E derived by comparing it with the table's wild-type CDR3 AGPMKTSYDKVI, the enrichment was found to be 0.105. On the same count and under the same terms, the value for […] (CDR3 as printed); V11S derived by comparing it with the table's wild-type CDR3 AGPMKTSYDKVI was 1.91. Turning to […] (CDR3 as printed); V11G derived by comparing it with the table's wild-type CDR3 AGPMKTSYDKVI, the enrichment was 0. Same read-out and setting: the value for […] (CDR3 as printed); T6W derived by comparing it with the table's wild-type CDR3 AGPMKTSYDKVI was 0; that for […] (CDR3 as printed); V11C derived by comparing it with the table's wild-type CDR3 AGPMKTSYDKVI was 0; that for […] (CDR3 as printed); V11E derived by comparing it with the table's wild-type CDR3 AGPMKTSYDKVI was 0. Regarding […] (CDR3 as printed); V11I derived by comparing it with the table's wild-type CDR3 AGPMKTSYDKVI, the enrichment is 5. Same read-out and setting: next, […] (CDR3 as printed); Y8Q derived by comparing it with the table's wild-type CDR3 AGPMKTSYDKVI: 0.

Turning to […] (CDR3 as printed); Y8F derived by comparing it with the table's wild-type CDR3 AGPMKTSYDKVI, the enrichment came out at 0. Still for that read-out and setting: next, […] (CDR3 as printed); Y8W derived by comparing it with the table's wild-type CDR3 AGPMKTSYDKVI: 0; […] (CDR3 as printed); Y8C derived by comparing it with the table's wild-type CDR3 AGPMKTSYDKVI: 0. With […] (CDR3 as printed); Y8M derived by comparing it with the table's wild-type CDR3 AGPMKTSYDKVI, the enrichment is 0. In the case of […] (CDR3 as printed); V11M derived by comparing it with the table's wild-type CDR3 AGPMKTSYDKVI, the enrichment was determined as 0. On to […] (CDR3 as printed); V11Q derived by comparing it with the table's wild-type CDR3 AGPMKTSYDKVI, for which the enrichment came out at 0. The same measure, in the same setting: next, […] (CDR3 as printed); V11P derived by comparing it with the table's wild-type CDR3 AGPMKTSYDKVI: 0.

Variants of B2 are the subject of a further assay. The assay is described as above. As to conditions: with HLA-A*02:01 with peptide … (NLV 3-1, the novel peptide), tetramers 1 µg/mL, 30 min on ice, SP, DP and SW gates expanded about 10 days between rounds ('two to three rounds of selection' in the Methods), gate SW: higher = more of the variant in the gate that binds the novel peptide and not the original one = switched binding. Fold enrichment of the CDR3 variant in one FACS gate of a two-tetramer stain, unresolved parent, parent is a CDR3 fragment, scale: fold enrichment, numbering: sequential-on-construct, sequence starts at 1.
Take […] (CDR3 as printed); K10D derived by comparing it with the table's wild-type CDR3 AGPMKTSYDKVI: the enrichment came to 0. Consider […] (CDR3 as printed); D9R derived by comparing it with the table's wild-type CDR3 AGPMKTSYDKVI, for which the enrichment amounted to 0. Regarding […] (CDR3 as printed); G2T derived by comparing it with the table's wild-type CDR3 AGPMKTSYDKVI, the enrichment was 0. As to […] (CDR3 as printed); A1V derived by comparing it with the table's wild-type CDR3 AGPMKTSYDKVI, the enrichment came out at 0. Take […] (CDR3 as printed); Y8K derived by comparing it with the table's wild-type CDR3 AGPMKTSYDKVI: the enrichment is 0. Consider […] (CDR3 as printed); P3M derived by comparing it with the table's wild-type CDR3 AGPMKTSYDKVI, for which the enrichment is 0.

For the variant […] (CDR3 as printed); K5A derived by comparing it with the table's wild-type CDR3 AGPMKTSYDKVI, the enrichment was found to be 0. As to […] (CDR3 as printed); Y8T derived by comparing it with the table's wild-type CDR3 AGPMKTSYDKVI, the enrichment was 0. In the case of […] (CDR3 as printed); S7A derived by comparing it with the table's wild-type CDR3 AGPMKTSYDKVI, the enrichment is 0.

Regarding […] (CDR3 as printed); V11D derived by comparing it with the table's wild-type CDR3 AGPMKTSYDKVI, the enrichment worked out at 0. For the variant […] (CDR3 as printed); P3C derived by comparing it with the table's wild-type CDR3 AGPMKTSYDKVI, the enrichment stood at 0.

For […] (CDR3 as printed); V11I derived by comparing it with the table's wild-type CDR3 AGPMKTSYDKVI, the enrichment is 0. With […] (CDR3 as printed); M4H derived by comparing it with the table's wild-type CDR3 AGPMKTSYDKVI, the enrichment was found to be 0.

For […] (CDR3 as printed); V11Y derived by comparing it with the table's wild-type CDR3 AGPMKTSYDKVI, the enrichment was 0.

Turning to […] (CDR3 as printed); S7N derived by comparing it with the table's wild-type CDR3 AGPMKTSYDKVI, the enrichment amounted to 0. The same measure, in the same setting: the value for […] (CDR3 as printed); V11E derived by comparing it with the table's wild-type CDR3 AGPMKTSYDKVI was 0; that for […] (CDR3 as printed); K10A derived by comparing it with the table's wild-type CDR3 AGPMKTSYDKVI was 0.

Consider […] (CDR3 as printed); G2D derived by comparing it with the table's wild-type CDR3 AGPMKTSYDKVI, for which the enrichment was found to be 0. Turning to […] (CDR3 as printed); I12G derived by comparing it with the table's wild-type CDR3 AGPMKTSYDKVI, the enrichment came to 0. With […] (CDR3 as printed); A1G derived by comparing it with the table's wild-type CDR3 AGPMKTSYDKVI, the enrichment was 0.
